# Reference: the supplement of paper PMC9233669
# Fewer inactive variants are shown than the library holds.
# What was measured:
# biotinyl-Met-oxazolone = experiment: self-aminoacylation, catalytic enhancement (BMO) (fold over background); higher = more active; k-Seq, kA / k0A0; sequences stand for … in GGGAAUGGAUCCACAUCUACGAAUUC…UUCACUGCAGACUUGACGAAGCUG
# Procedure, shortened: (§1)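 Each biotinyl-aminoacyl-oxazolone, at 2–1250 μM, was incubated with mutagenized RNA pools (0.43 μM) carrying a 21-nt variable region. The 50 μL reactions contained HEPES/NaCl/KCl/MgCl2/CaCl2 buffer with 5% acetonitrile at pH 6.9–7.0 and ran for 90 minutes at room temperature. After streptavidin capture, RNA was measured by qPCR in triplicate and by Illumina sequencing, and catalytic enhancement was calculated as median kA over the uncatalyzed rate from a pseudo-first-order fit of per-sequence fraction reacted.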
# biotinyl-Trp-oxazolone = experiment: self-aminoacylation, catalytic enhancement (BWO) (fold over background); higher = more active; k-Seq, kA / k0A0; sequences stand for … in GGGAAUGGAUCCACAUCUACGAAUUC…UUCACUGCAGACUUGACGAAGCUG
# Procedure, shortened: as §1
# biotinyl-Val-oxazolone = experiment: self-aminoacylation, catalytic enhancement (BVO) (fold over background); higher = more active; k-Seq, kA / k0A0; sequences stand for … in GGGAAUGGAUCCACAUCUACGAAUUC…UUCACUGCAGACUUGACGAAGCUG
# Procedure, shortened: as §1
# biotinyl-Leu-oxazolone = experiment: self-aminoacylation, catalytic enhancement (BLO) (fold over background); higher = more active; k-Seq, kA / k0A0; sequences stand for … in GGGAAUGGAUCCACAUCUACGAAUUC…UUCACUGCAGACUUGACGAAGCUG
# Procedure, shortened: as §1
# biotinyl-Phe-oxazolone = experiment: self-aminoacylation, catalytic enhancement (BFO) (fold over background); higher = more active; k-Seq, kA / k0A0; sequences stand for … in GGGAAUGGAUCCACAUCUACGAAUUC…UUCACUGCAGACUUGACGAAGCUG
# Procedure, shortened: as §1
# biotinyl-Ile-oxazolone = experiment: self-aminoacylation, catalytic enhancement (BIO) (fold over background); higher = more active; k-Seq, kA / k0A0; sequences stand for … in GGGAAUGGAUCCACAUCUACGAAUUC…UUCACUGCAGACUUGACGAAGCUG
# Procedure, shortened: as §1
Sequence,self-aminoacylation (biotinyl-Met-oxazolone),self-aminoacylation (biotinyl-Trp-oxazolone),self-aminoacylation (biotinyl-Val-oxazolone),self-aminoacylation (biotinyl-Leu-oxazolone),self-aminoacylation (biotinyl-Phe-oxazolone),self-aminoacylation (biotinyl-Ile-oxazolone)
CUACUUCACACAAUCGGUCUA [Fam1A.1 aminoacylation ribozyme variant],0.626,0.777,0.834,0.802,0.822,0.72
CUACUUCACACAAUCGUUCUG [Fam1A.1 aminoacylation ribozyme variant],0.477,0.392,0.61,0.484,0.66,0.649
CUACUUCACGCAAUCGGUCUG [Fam1A.1 aminoacylation ribozyme variant],0.912,0.819,0.908,0.711,0.929,0.837
CUACUUCAGACAAUCGGUCUC [Fam1A.1 aminoacylation ribozyme variant],0.857,0.825,0.977,0.895,1.09,0.936
CUACUUCAGACAAUCGGUCUG [Fam1A.1 aminoacylation ribozyme variant],0.758,0.857,0.822,0.807,1.19,0.782
CUACUUCAGACACUCGGUCUG [Fam1A.1 aminoacylation ribozyme variant],1.49,1.03,1.54,1.52,1.77,1.2
CUACUUCAGACCAUCGGUCUG [Fam1A.1 aminoacylation ribozyme variant],1.25,0.856,1.07,1.14,1.06,1.1
CUACUUCAGCCAAUCGGUCUG [Fam1A.1 aminoacylation ribozyme variant],0.713,0.425,0.673,0.842,0.64,0.691
CUACUUCAUAAAAUCGGUCUG [Fam1A.1 aminoacylation ribozyme variant],0.699,0.389,0.641,0.622,0.567,0.656
CUACUUCAUACAAUCGAUCUG [Fam1A.1 aminoacylation ribozyme variant],0.653,0.601,0.806,0.505,0.752,0.657
CUACUUCAUACAAUCGGUCUU [Fam1A.1 aminoacylation ribozyme variant],0.724,0.491,0.972,0.844,0.932,1.01
CUACUUCAUACAAUCUGUCUG [Fam1A.1 aminoacylation ribozyme variant],0.64,0.424,0.682,0.566,0.66,0.668
CUACUUCAUACAAUUGGUCUG [Fam1A.1 aminoacylation ribozyme variant],0.755,0.453,0.849,0.731,0.656,0.743
CUACUUCAUACAGUCGGUCUG [Fam1A.1 aminoacylation ribozyme variant],0.52,0.282,0.67,0.556,0.496,0.574
CUACUUCAUAGAAUCGGUCUG [Fam1A.1 aminoacylation ribozyme variant],0.75,0.698,0.749,0.837,0.644,0.783
CUACUUCCAACAAUCGGUGUG [Fam1A.1 aminoacylation ribozyme variant],1.06,1.09,1.03,1.28,0.789,0.97
CUACUUCCAACAGUCGGUCUG [Fam1A.1 aminoacylation ribozyme variant],1.06,0.76,0.851,0.971,0.496,0.911
CUACUUCCAACAUUCGGUCUG [Fam1A.1 aminoacylation ribozyme variant],1.07,1.16,1.39,1.54,1.68,1.17
CUACUUCCAGCAAUCGGUCUG [Fam1A.1 aminoacylation ribozyme variant],0.77,0.458,0.961,1.04,0.605,0.87
CUACUUCGAACAACCGGUCUG [Fam1A.1 aminoacylation ribozyme variant],0.734,0.949,1.21,0.836,0.394,0.822
CUACUUCGAACAAUCGGCCUG [Fam1A.1 aminoacylation ribozyme variant],1.71,1.84,1.54,1.36,4.78,1.6
CUACUUCGAACAAUCGGUGUG [Fam1A.1 aminoacylation ribozyme variant],1.13,1.25,0.999,1.26,0.861,1.03
CUACUUCGAACAAUCGUUCUG [Fam1A.1 aminoacylation ribozyme variant],0.453,0.368,0.49,0.457,0.268,0.432
CUACUUCGAACAAUCUGUCUG [Fam1A.1 aminoacylation ribozyme variant],0.51,0.337,0.576,0.576,0.413,0.539
CUACUUCGAACCAUCGGUCUG [Fam1A.1 aminoacylation ribozyme variant],0.813,0.463,0.779,0.61,0.458,0.723
CUACUUCUAACAAUCGGUCGG [Fam1A.1 aminoacylation ribozyme variant],0.626,0.653,0.728,0.978,0.725,0.843

Sequence,self-aminoacylation (biotinyl-Met-oxazolone),self-aminoacylation (biotinyl-Trp-oxazolone),self-aminoacylation (biotinyl-Val-oxazolone),self-aminoacylation (biotinyl-Leu-oxazolone),self-aminoacylation (biotinyl-Phe-oxazolone),self-aminoacylation (biotinyl-Ile-oxazolone)
CUACUUCUAACAAUGGGUCUG [Fam1A.1 aminoacylation ribozyme variant],0.718,0.566,0.705,0.697,0.582,0.833
CUACUUGAAACAAUCGGUCUG [Fam1A.1 aminoacylation ribozyme variant],0.788,0.631,0.779,0.707,0.652,0.766
CUACUUGAAACAAUCGUUCUG [Fam1A.1 aminoacylation ribozyme variant],0.614,0.379,0.561,0.645,0.5,0.635
CUACUUGAAACAAUGGGUCUG [Fam1A.1 aminoacylation ribozyme variant],1.65,1.61,1.13,1.13,0.694,1.3
CUACUUUAAAAAAUCGGUCUG [Fam1A.1 aminoacylation ribozyme variant],0.987,0.72,0.87,0.744,0.887,1.01
CUACUUUAGACAAUCGGUCUG [Fam1A.1 aminoacylation ribozyme variant],0.847,0.518,0.826,0.7,0.65,0.77
CUAGUACAAACAAUCGGUCUG [Fam1A.1 aminoacylation ribozyme variant],0.725,0.572,0.775,0.802,0.781,0.837
CUAGUUAAAACAAUCGGUCUG [Fam1A.1 aminoacylation ribozyme variant],0.958,0.622,0.679,0.801,0.675,0.795
CUAGUUCAAACAAUCCGUCUG [Fam1A.1 aminoacylation ribozyme variant],0.885,0.713,0.895,0.89,0.796,0.861
CUAGUUCAAACAAUCGCUCUG [Fam1A.1 aminoacylation ribozyme variant],0.827,0.844,0.934,0.798,0.847,0.832
CUAGUUCAAACAAUCGGUCAG [Fam1A.1 aminoacylation ribozyme variant],0.731,1.2,0.753,0.692,2.03,0.714
CUAGUUCAAACACUCGGUCUG [Fam1A.1 aminoacylation ribozyme variant],1.46,1.04,1.31,1.48,5.58,1.35
CUAGUUCAAACGAUCGGUCUG [Fam1A.1 aminoacylation ribozyme variant],0.812,0.58,0.794,0.844,0.559,0.782
CUAGUUCACACAAUCGGUCUG [Fam1A.1 aminoacylation ribozyme variant],1.13,1.19,1.14,1.36,2.8,1.28
CUAUUUCAAACAAUCAGUCUG [Fam1A.1 aminoacylation ribozyme variant],0.721,1.7,0.852,0.72,4.29,0.795
CUAUUUCAAACAAUCGGGCUG [Fam1A.1 aminoacylation ribozyme variant],1.08,1.88,1,0.844,2.05,1.24
CUAUUUCAAACAAUCGGUCUU [Fam1A.1 aminoacylation ribozyme variant],0.878,1.57,0.827,0.792,2.72,0.864
CUAUUUCAAACAAUCGGUUUG [Fam1A.1 aminoacylation ribozyme variant],0.903,3.18,0.81,1,4.11,0.907
CUCACCCUGGUCAUCGAGUGA [Fam2.1 aminoacylation ribozyme variant],5.33,6.74,4.49,7.38,27.1,3.71
CUCCGUCAAACAAUCGGUCUG [Fam1A.1 aminoacylation ribozyme variant],1.02,1.29,0.973,0.889,1.97,1.07
CUCCUCCAAACAAUCGGUCUG [Fam1A.1 aminoacylation ribozyme variant],0.973,2.85,0.846,0.846,2.28,1.06
CUCCUUAAAACAAUCGGUCUG [Fam1A.1 aminoacylation ribozyme variant],1.12,1.32,0.862,0.899,1.05,1.06
CUCCUUCAAACAAUCGGCCUG [Fam1A.1 aminoacylation ribozyme variant],2.63,61.7,2.15,3.39,131,2.04
CUCGUUCAAACAAUCGGUCUG [Fam1A.1 aminoacylation ribozyme variant],0.961,6.95,1.07,1.31,10.2,1.09
CUGAUUCAAACAAUCGGUCUG [Fam1A.1 aminoacylation ribozyme variant],0.923,6.12,0.828,1.14,9.61,0.947
